From paper PMC7114241

Key:
Assay in all cases: FRET
[1] = target: Ac-NSFSQ-H
[2] = target: Ac-ESTLQ-H
[3] = target: Ac-NSTSQ-H

B1: SARS-CoV main protease (Mpro), P0C6X7 (protein)
chain: SGFRKMAFPSGKVEGCMVQVTCGTTTLNGLWLDDTVYCPRHVICTAEDMLNPNYEDLLIRKSNHSFLVQAGNVQLRVIGHSMQNCLLRLKVDTSNPKTPKYKFVRIQPGQTFSVLACYNGSPSGVYQCAMRPNHTIKGSFLNGSCGSVGFNIDYDCVSFCYMHHMELPTGVHAGTDLEGKFYGPFVDRQTAQAAGTDTTITLNVLAWLYAAVINGDRWFLNRFTTTLNDFNLVAMKYNYEPLTQDHVDILGPLSAQTGIAVLDMCAALKELLQNGMNGRTILGSTILEDEFTPFDVVRQCSGVTFQ
[1]
  Ki: 72.7 µM
[2]
  Ki: 8.27 µM
[3]
  Ki: 41 µM
